Measurements as given in PMC2275139.
Positions count from the first letter of the chain named. Read-outs that look alike come from different tables or passages of the source.

What was measured:
IcaR K33E = target: T1, IcaR K33E (Staphylococcus epidermidis ATCC 35984 …, UniProt Q5HKQ1 1-185, K33E); test: ITC
T1 sequence: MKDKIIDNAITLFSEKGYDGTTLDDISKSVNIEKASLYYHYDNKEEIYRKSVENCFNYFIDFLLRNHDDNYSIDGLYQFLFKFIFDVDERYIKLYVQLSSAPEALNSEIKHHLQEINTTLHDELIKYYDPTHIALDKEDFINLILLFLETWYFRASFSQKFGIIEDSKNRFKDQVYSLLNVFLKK

IcaR wild type [1] = target: T2, IcaR wild type (Staphylococcus epidermidis ATCC 35984 …, UniProt Q5HKQ1 1-185); test: EMSA
T2 sequence: T1 sequence with E33K

IcaR wild type [2] = target: T2, IcaR wild type; test: EMSA; remark: listed apart in the source

B1: 28E (dsDNA)
DNA 1: ACAACCTAACTAACGAAAGGTAGGTGAA
DNA 2: TTCACCTACCTTTCGTTAGTTAGGTTGT
Does B1 bind (IcaR K33E)?
Result: no binding

B2: 16 bp probe (same center as 28E) (dsDNA)
DNA 1: TAACTAACGAAAGGTA
DNA 2: TACCTTTCGTTAGTTA
Does B2 bind (IcaR wild type [1])?
Result: no binding

B3: 24E (dsDNA)
DNA 1: AACCTAACTAACGAAAGGTAGGTG
DNA 2: CACCTACCTTTCGTTAGTTAGGTT
Does B3 bind (IcaR wild type [2])?
Result: binds
